Assay results from patent publication US20220411498A1 (JACOBIO PHARMACEUTICALS, published 2022).

T1: huCD39 on the cell surface (293T/17-huCD39 cells) (human, UniProt P49961 1-510)
T1 sequence (looked up): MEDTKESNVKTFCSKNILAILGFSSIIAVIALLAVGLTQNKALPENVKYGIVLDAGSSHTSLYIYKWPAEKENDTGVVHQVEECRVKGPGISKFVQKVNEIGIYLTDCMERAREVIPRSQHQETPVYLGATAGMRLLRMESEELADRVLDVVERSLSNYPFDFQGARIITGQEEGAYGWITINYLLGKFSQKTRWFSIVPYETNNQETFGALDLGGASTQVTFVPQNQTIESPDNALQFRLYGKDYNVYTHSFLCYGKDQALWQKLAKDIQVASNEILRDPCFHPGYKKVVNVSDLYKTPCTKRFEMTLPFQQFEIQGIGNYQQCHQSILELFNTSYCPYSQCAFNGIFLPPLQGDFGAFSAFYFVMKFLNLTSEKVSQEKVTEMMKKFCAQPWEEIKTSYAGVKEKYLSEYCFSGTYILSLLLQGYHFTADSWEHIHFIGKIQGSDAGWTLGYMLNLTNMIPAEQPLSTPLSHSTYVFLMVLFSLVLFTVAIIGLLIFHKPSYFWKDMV

T2: huCD39 recombinant protein (human, UniProt P49961 38-478)
T2 construct: the entry is the extracellular domain and ends in a histidine tag; also called soluble huCD39 protein; human CD39 extracellular domain recombinant protein
T2 sequence: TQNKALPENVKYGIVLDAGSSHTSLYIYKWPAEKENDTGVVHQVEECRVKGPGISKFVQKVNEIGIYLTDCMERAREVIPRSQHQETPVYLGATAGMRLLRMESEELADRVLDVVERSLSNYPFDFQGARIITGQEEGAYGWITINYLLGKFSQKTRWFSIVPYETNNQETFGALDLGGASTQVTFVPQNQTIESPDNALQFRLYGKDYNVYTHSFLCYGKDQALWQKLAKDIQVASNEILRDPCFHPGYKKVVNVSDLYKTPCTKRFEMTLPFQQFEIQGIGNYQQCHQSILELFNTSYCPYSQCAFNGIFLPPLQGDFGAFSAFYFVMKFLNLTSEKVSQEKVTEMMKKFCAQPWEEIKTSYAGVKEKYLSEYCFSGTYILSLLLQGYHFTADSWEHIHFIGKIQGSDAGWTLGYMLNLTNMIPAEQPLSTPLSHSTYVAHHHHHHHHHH


Columns and labels:
[1] = biological target: T1, huCD39 on the cell surface …; assay: cell-based or functional assay
[2] = biological target: T1, huCD39 on the cell surface …; assay: cell-based or functional assay; remark: listed apart in the source
[3] = biological target: T1, huCD39 on the cell surface …; assay: flow cytometry on 293T/17-huCD39 cells
Experimental: Flow cytometry assay: recombinant host cell line 293T/17-huCD39 cells expressing huCD39 were used to evaluate the binding ability of the humanized antibody to the natural CD39 protein on the cell surface. The recombinant cells were resuspended in PBS buffer, 2×10⁶ cells were added to a 96-well U-plate, and a certain gradient dilution range of the humanized antibody was incubated for 1h at 4° C. in a refrigerator or on ice. The mixture was centrifuged at 1500 rpm for 3 min at 4° C., and washed three times with PBS buffer. Then, incubated for 30 min at 4° C. in the refrigerator or on ice with diluted Alexa Fluor 488-labeled goat anti-human polyclonal antibody (pAb): Goat anti-Human IgG (H+L) Cross-Adsorbed Secondary Antibody, Alexa Fluor 488 (thermo), and finally the cells were washed three times with PBS as described above and analyzed in MACSQuant flow cytometry. Data plots were generated and affinity data were counted using GraphPad Prism software (FIG. 5). The results are shown in Table 5, and the EC₅₀ values of 293T/17-huCD39 humanized antibody were all at the level of 10⁻⁹M.

[4] = biological target: T2, huCD39 recombinant protein; assay: indirect ELISA, huCD39 recombinant protein coated at 1 ug/mL
Experimental: The next day, washed 5 times with PBS buffer and blocked with 200 μL/well of 2% skim milk powder for 1 h. A certain dose range of CD39 humanized antibody was added, and incubated for 1 h at room temperature. Then, washed 5 times with PBST washing buffer (PBS, 0.05% Tween 20), 100 μL HRP-labeled secondary antibody was added to each well, and incubated for 30 min at room temperature. The plates were washed 5 times again, and TMB (Life Technologies) was added for color development for 5 to 10 min. Finally, 1N HCl was added to terminate the reaction, and the OD value was measured at 450 nm. GraphPad Prism software was used to generate data plots and count the affinity data (FIG. 4). The EC₅₀ values of the binding activity of the three humanized antibodies were all at the level of 10⁻¹⁰ M.

Row | Blocking of ATPase activity on cell surface (293T/17-huCD39, CellTiter Glo): Bottom [1] | Blocking of ATPase activity on cell surface (293T/17-huCD39, CellTiter Glo): EC50 [1] [nM] | Blocking of ATPase activity on cell surface (293T/17-huCD39, CellTiter Glo): Top [1] | EC50 of reversal of ATP-mediated proliferation inhibition of human CD4+ T cells (CFSE, flow cytometry) [2] [nM] | EC50 of reversal of ATP-mediated proliferation inhibition of human CD8+ T cells (CFSE, flow cytometry) [2] [nM] | Bottom [3] | EC50 [3] [nM] | Top [3] | Bottom [4] [OD450] | EC50 [4] [nM] | Top [4] [OD450] | Binder
1 | 39600 | 0.038 | 245000 | 5.08 | 7.08 | -1.33 | 3.31 | 280 | 0.109 | 0.433 | 1.03 | h201H3.1+h201L1.1dmut G2C (antibody, human IgG2, kappa, V domains shown, Humanized antibody, expressed in 293F cells) VH: QVQLVESGGGVVQPGRSLRLSCAASGFTFSDYGMHWVRQAPGKGLEWVAYISSGSSIMYYADTVKGRFTISRDNSKNTLYLQMNSLRAEDTAVYYCARDLYYDHVLDYWGQGTTVTVSS VL: DIQMTQSPSSLSASVGDRVTITCRASQEIRGYLIWLQQKPGKAIKRLIYAASTLESGVPSRFSGSRSGSDYTLTISSLQPEDFATYYCLQYTSYPRTFGQGTKVEIKR
2 | 38800 | 0.077 | 250000 | 0.646 | 1.35 | 8.18 | 3.1 | 266 | 0.085 | 0.709 | 0.991 | h201H3.1+h219L1.1 G2C (antibody, human IgG2, kappa, V domains shown, Humanized antibody, expressed in 293F cells) VH: QVQLVESGGGVVQPGRSLRLSCAASGFTFSDYGMHWVRQAPGKGLEWVAYISSGSSIMYYADTVKGRFTISRDNSKNTLYLQMNSLRAEDTAVYYCARDLYYDHVLDYWGQGTTVTVSS VL: DIQMTQSPSSLSASVGDRVTITCRASQEVSGYLNWLQQKPGKAIKRLIYAASTLESGVPSRFSGSRSGSDYTLTISSLQPEDFATYYCLQYASYPRTFGQGTKVEIKR
3 | 31300 | 0.026 | 152000 | 25.5 | 60.4 | -2.15 | 2.94 | 329 | 0.068 | 0.514 | 1.18 | M201 HuH1L1(D-E) G2C (antibody, human IgG2, kappa, V domains shown, Humanized antibody, expressed in 293F cells) VH: EVQLVESGGGLVQPGGSLRLSCAASGFTFSDYGMHWVRQAPGKGLEWVSYISSGSSIMYYADTVKGRFTISRDNAKNSLYLQMNSLRAEDTAVYYCARDLYYDHVLDYWGQGTLLTVSS VL: DIQMTQSPSSLSASVGDRVTITCRASQEIRGYLIWLQQKPGGAIKRLIYAASTLESGVPSRFSGSRSGTDFTLTISSLQPEDFATYYCLQYTSYPRTFGGGTKVEIKR
